Data from FireProtDB (doi:10.1093/jb/mvq079).

Settings: Escherichia coli (strain K12), whole UniProt chain shown

B1: Divalent-cation tolerance protein CutA wild type, P69488 (protein)
chain: MLDEKSSNTASVVVLCTAPDEATAQDLAAKVLAEKLAACATLIPGATSLYYWEGKLEQEYEVQMILKTTVSHQQALLECLKSHHPYQTPELLVLPVTHGDTDYLSWLNASLR
With B1 the “denaturant midpoint (higher = more stable)” value (pH 8, 37 °C, GdnHCl, CD, Tris-HCl, reversible: yes) was 2.72 M and the Tm (pH 9, Thermal, DSC, glycine Buffer, transition: 2, reversible: no) was 89.9 °C.
